B1: De novo trastuzumab HCDR3 variant ARDYDFGLSVGAV (SEQ ID NO: 486) (Fab, V domains shown)
VH: EVQLVESGGGLVQPGGSLRLSCAASGFNIKDTYIHWVRQAPGKGLEWVARIYPTNGYTRYADSVKGRFTISADTSKNTAYLQMNSLRAEDTAVYYCARDYDFGLSVGAVWGQGTLVTVSS
VL: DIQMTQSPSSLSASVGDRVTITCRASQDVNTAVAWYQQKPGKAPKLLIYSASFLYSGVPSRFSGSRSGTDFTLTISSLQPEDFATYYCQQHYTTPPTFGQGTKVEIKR
B2: De novo trastuzumab HCDR3 variant ARSNNWYSYSFQF (SEQ ID NO: 478) (Fab, V domains shown)
VH: EVQLVESGGGLVQPGGSLRLSCAASGFNIKDTYIHWVRQAPGKGLEWVARIYPTNGYTRYADSVKGRFTISADTSKNTAYLQMNSLRAEDTAVYYCARSNNWYSYSFQFWGQGTLVTVSS
VL: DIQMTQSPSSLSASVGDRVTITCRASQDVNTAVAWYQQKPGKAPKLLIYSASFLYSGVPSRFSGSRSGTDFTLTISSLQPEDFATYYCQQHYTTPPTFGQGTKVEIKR
B3: De novo trastuzumab HCDR3 variant ARYHYRTIGSFGY (SEQ ID NO: 487) (Fab, V domains shown)
VH: EVQLVESGGGLVQPGGSLRLSCAASGFNIKDTYIHWVRQAPGKGLEWVARIYPTNGYTRYADSVKGRFTISADTSKNTAYLQMNSLRAEDTAVYYCARYHYRTIGSFGYWGQGTLVTVSS
VL: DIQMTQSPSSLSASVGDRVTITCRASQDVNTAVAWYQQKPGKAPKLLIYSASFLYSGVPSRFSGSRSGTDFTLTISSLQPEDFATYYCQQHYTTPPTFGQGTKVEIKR
B4: De novo trastuzumab HCDR3 variant ARGYAYYVAGREY (SEQ ID NO: 493) (Fab, V domains shown)
VH: EVQLVESGGGLVQPGGSLRLSCAASGFNIKDTYIHWVRQAPGKGLEWVARIYPTNGYTRYADSVKGRFTISADTSKNTAYLQMNSLRAEDTAVYYCARGYAYYVAGREYWGQGTLVTVSS
VL: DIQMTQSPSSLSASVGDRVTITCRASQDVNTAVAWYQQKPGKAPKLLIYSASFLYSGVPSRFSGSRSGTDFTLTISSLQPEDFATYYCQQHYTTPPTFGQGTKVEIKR
B5: De novo trastuzumab HCDR3 variant ARNYYGAAYYFDY (SEQ ID NO: 495) (Fab, V domains shown)
VH: EVQLVESGGGLVQPGGSLRLSCAASGFNIKDTYIHWVRQAPGKGLEWVARIYPTNGYTRYADSVKGRFTISADTSKNTAYLQMNSLRAEDTAVYYCARNYYGAAYYFDYWGQGTLVTVSS
VL: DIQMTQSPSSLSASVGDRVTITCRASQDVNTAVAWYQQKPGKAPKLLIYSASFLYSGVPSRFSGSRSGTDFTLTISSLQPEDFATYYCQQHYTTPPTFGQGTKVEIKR
B6: De novo trastuzumab HCDR3 variant ARLGASHGYLYDD (SEQ ID NO: 484) (Fab, V domains shown)
VH: EVQLVESGGGLVQPGGSLRLSCAASGFNIKDTYIHWVRQAPGKGLEWVARIYPTNGYTRYADSVKGRFTISADTSKNTAYLQMNSLRAEDTAVYYCARLGASHGYLYDDWGQGTLVTVSS
VL: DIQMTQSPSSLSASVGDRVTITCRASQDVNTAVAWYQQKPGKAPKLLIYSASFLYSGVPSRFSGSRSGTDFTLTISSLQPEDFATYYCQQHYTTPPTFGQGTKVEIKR
B7: Multi-step trastuzumab HCDR3 variant ARVGGYGYYSYDY (SEQ ID NO: 539) (Fab, V domains shown)
VH: EVQLVESGGGLVQPGGSLRLSCAASGFNIKDTYIHWVRQAPGKGLEWVARIYPTNGYTRYADSVKGRFTISADTSKNTAYLQMNSLRAEDTAVYYCARVGGYGYYSYDYWGQGTLVTVSS
VL: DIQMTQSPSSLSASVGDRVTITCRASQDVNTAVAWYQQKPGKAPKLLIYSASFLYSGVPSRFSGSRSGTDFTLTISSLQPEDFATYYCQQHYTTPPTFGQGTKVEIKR
B8: Multi-step trastuzumab HCDR3 variant ARYSYYGGGAFDY (SEQ ID NO: 543) (Fab, V domains shown)
VH: EVQLVESGGGLVQPGGSLRLSCAASGFNIKDTYIHWVRQAPGKGLEWVARIYPTNGYTRYADSVKGRFTISADTSKNTAYLQMNSLRAEDTAVYYCARYSYYGGGAFDYWGQGTLVTVSS
VL: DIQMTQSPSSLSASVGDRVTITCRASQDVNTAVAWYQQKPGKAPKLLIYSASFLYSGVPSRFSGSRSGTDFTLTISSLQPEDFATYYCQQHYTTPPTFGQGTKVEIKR
B9: Multi-step trastuzumab HCDR3 variant ARYYGSSSYYFAY (SEQ ID NO: 75) (Fab, V domains shown)
VH: EVQLVESGGGLVQPGGSLRLSCAASGFNIKDTYIHWVRQAPGKGLEWVARIYPTNGYTRYADSVKGRFTISADTSKNTAYLQMNSLRAEDTAVYYCARYYGSSSYYFAYWGQGTLVTVSS
VL: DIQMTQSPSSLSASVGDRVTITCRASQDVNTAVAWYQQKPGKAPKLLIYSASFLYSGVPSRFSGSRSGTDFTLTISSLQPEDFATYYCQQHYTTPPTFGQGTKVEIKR
notes: also called AI Design 9
B10: Multi-step trastuzumab HCDR3 variant ARYSGDSYYYYDY (SEQ ID NO: 550) (Fab, V domains shown)
VH: EVQLVESGGGLVQPGGSLRLSCAASGFNIKDTYIHWVRQAPGKGLEWVARIYPTNGYTRYADSVKGRFTISADTSKNTAYLQMNSLRAEDTAVYYCARYSGDSYYYYDYWGQGTLVTVSS
VL: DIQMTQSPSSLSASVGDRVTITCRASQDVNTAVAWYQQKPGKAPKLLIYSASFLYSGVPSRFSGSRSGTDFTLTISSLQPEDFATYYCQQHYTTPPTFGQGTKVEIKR
B11: Multi-step trastuzumab HCDR3 variant ARVGGRGYYAYDY (SEQ ID NO: 552) (Fab, V domains shown)
VH: EVQLVESGGGLVQPGGSLRLSCAASGFNIKDTYIHWVRQAPGKGLEWVARIYPTNGYTRYADSVKGRFTISADTSKNTAYLQMNSLRAEDTAVYYCARVGGRGYYAYDYWGQGTLVTVSS
VL: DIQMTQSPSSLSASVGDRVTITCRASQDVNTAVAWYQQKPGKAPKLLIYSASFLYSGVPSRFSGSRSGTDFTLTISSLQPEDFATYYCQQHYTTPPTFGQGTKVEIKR
B12: Multi-step trastuzumab HCDR3 variant ARYSSSGGSAFDY (SEQ ID NO: 542) (Fab, V domains shown)
VH: EVQLVESGGGLVQPGGSLRLSCAASGFNIKDTYIHWVRQAPGKGLEWVARIYPTNGYTRYADSVKGRFTISADTSKNTAYLQMNSLRAEDTAVYYCARYSSSGGSAFDYWGQGTLVTVSS
VL: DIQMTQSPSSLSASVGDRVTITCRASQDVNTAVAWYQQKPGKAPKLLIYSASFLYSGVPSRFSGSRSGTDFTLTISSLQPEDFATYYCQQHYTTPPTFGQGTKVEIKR
B13: Multi-step trastuzumab HCDR3 variant ARYRGRGFYSFDY (SEQ ID NO: 532) (Fab, V domains shown)
VH: EVQLVESGGGLVQPGGSLRLSCAASGFNIKDTYIHWVRQAPGKGLEWVARIYPTNGYTRYADSVKGRFTISADTSKNTAYLQMNSLRAEDTAVYYCARYRGRGFYSFDYWGQGTLVTVSS
VL: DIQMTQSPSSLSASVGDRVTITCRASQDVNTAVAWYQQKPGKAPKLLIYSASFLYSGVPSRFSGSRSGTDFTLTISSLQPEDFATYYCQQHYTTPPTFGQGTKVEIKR
B14: Multi-step trastuzumab HCDR3 variant ARYSYYGGGYFDY (SEQ ID NO: 515) (Fab, V domains shown)
VH: EVQLVESGGGLVQPGGSLRLSCAASGFNIKDTYIHWVRQAPGKGLEWVARIYPTNGYTRYADSVKGRFTISADTSKNTAYLQMNSLRAEDTAVYYCARYSYYGGGYFDYWGQGTLVTVSS
VL: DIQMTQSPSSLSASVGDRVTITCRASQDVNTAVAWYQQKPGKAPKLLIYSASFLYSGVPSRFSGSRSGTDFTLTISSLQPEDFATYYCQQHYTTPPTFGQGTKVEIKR
B15: Multi-step trastuzumab HCDR3 variant ARTGGSSYYAYDY (SEQ ID NO: 520) (Fab, V domains shown)
VH: EVQLVESGGGLVQPGGSLRLSCAASGFNIKDTYIHWVRQAPGKGLEWVARIYPTNGYTRYADSVKGRFTISADTSKNTAYLQMNSLRAEDTAVYYCARTGGSSYYAYDYWGQGTLVTVSS
VL: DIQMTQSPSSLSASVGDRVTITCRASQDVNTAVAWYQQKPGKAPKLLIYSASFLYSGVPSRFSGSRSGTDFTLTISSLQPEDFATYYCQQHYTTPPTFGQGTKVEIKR
B16: Multi-step trastuzumab HCDR3 variant ARYGGRGYYSFDY (SEQ ID NO: 533) (Fab, V domains shown)
VH: EVQLVESGGGLVQPGGSLRLSCAASGFNIKDTYIHWVRQAPGKGLEWVARIYPTNGYTRYADSVKGRFTISADTSKNTAYLQMNSLRAEDTAVYYCARYGGRGYYSFDYWGQGTLVTVSS
VL: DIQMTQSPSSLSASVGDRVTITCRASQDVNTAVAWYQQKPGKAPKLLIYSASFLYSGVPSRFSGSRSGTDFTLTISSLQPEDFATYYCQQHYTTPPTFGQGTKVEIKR
B17: Multi-step trastuzumab HCDR3 variant ARYGGSSNYYYDY (SEQ ID NO: 518) (Fab, V domains shown)
VH: EVQLVESGGGLVQPGGSLRLSCAASGFNIKDTYIHWVRQAPGKGLEWVARIYPTNGYTRYADSVKGRFTISADTSKNTAYLQMNSLRAEDTAVYYCARYGGSSNYYYDYWGQGTLVTVSS
VL: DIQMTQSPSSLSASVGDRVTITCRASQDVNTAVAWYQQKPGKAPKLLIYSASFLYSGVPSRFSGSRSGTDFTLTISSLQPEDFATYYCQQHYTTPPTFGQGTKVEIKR
B18: Multi-step trastuzumab HCDR3 variant ASSGGSSSYSYYY (SEQ ID NO: 513) (Fab, V domains shown)
VH: EVQLVESGGGLVQPGGSLRLSCAASGFNIKDTYIHWVRQAPGKGLEWVARIYPTNGYTRYADSVKGRFTISADTSKNTAYLQMNSLRAEDTAVYYCASSGGSSSYSYYYWGQGTLVTVSS
VL: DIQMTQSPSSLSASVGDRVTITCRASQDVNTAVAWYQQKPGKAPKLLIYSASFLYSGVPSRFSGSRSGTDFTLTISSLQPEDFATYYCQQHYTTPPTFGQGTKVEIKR
B19: Multi-step trastuzumab HCDR3 variant ARYGGSSYYYFDY (SEQ ID NO: 528) (Fab, V domains shown)
VH: EVQLVESGGGLVQPGGSLRLSCAASGFNIKDTYIHWVRQAPGKGLEWVARIYPTNGYTRYADSVKGRFTISADTSKNTAYLQMNSLRAEDTAVYYCARYGGSSYYYFDYWGQGTLVTVSS
VL: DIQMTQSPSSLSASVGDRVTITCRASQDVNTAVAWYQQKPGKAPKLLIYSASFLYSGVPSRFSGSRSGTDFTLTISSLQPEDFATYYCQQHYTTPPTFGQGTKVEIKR
B20: Multi-step trastuzumab HCDR3 variant TRYSYYGYHAMDY (SEQ ID NO: 549) (Fab, V domains shown)
VH: EVQLVESGGGLVQPGGSLRLSCAASGFNIKDTYIHWVRQAPGKGLEWVARIYPTNGYTRYADSVKGRFTISADTSKNTAYLQMNSLRAEDTAVYYCTRYSYYGYHAMDYWGQGTLVTVSS
VL: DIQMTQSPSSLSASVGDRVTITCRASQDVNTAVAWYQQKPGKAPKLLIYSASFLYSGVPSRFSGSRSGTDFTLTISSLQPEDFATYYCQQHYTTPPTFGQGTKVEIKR
B21: Multi-step trastuzumab HCDR3 variant ARYGGSSYYYYDY (SEQ ID NO: 529) (Fab, V domains shown)
VH: EVQLVESGGGLVQPGGSLRLSCAASGFNIKDTYIHWVRQAPGKGLEWVARIYPTNGYTRYADSVKGRFTISADTSKNTAYLQMNSLRAEDTAVYYCARYGGSSYYYYDYWGQGTLVTVSS
VL: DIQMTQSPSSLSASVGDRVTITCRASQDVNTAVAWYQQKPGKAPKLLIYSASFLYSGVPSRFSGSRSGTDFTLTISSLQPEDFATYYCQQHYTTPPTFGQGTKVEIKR
B22: Multi-step trastuzumab HCDR3 variant ARYGGSYFYYYSY (SEQ ID NO: 517) (Fab, V domains shown)
VH: EVQLVESGGGLVQPGGSLRLSCAASGFNIKDTYIHWVRQAPGKGLEWVARIYPTNGYTRYADSVKGRFTISADTSKNTAYLQMNSLRAEDTAVYYCARYGGSYFYYYSYWGQGTLVTVSS
VL: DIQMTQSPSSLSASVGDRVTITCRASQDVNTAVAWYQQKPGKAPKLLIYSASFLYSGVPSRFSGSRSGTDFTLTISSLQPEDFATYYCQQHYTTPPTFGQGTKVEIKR
B23: Multi-step trastuzumab HCDR3 variant ARYGGGYYYYYDY (SEQ ID NO: 531) (Fab, V domains shown)
VH: EVQLVESGGGLVQPGGSLRLSCAASGFNIKDTYIHWVRQAPGKGLEWVARIYPTNGYTRYADSVKGRFTISADTSKNTAYLQMNSLRAEDTAVYYCARYGGGYYYYYDYWGQGTLVTVSS
VL: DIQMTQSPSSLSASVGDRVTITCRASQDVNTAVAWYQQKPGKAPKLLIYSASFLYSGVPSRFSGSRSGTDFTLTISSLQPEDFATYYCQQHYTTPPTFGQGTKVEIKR
B24: Multi-step trastuzumab HCDR3 variant ARYGGRSSYYFDY (SEQ ID NO: 545) (Fab, V domains shown)
VH: EVQLVESGGGLVQPGGSLRLSCAASGFNIKDTYIHWVRQAPGKGLEWVARIYPTNGYTRYADSVKGRFTISADTSKNTAYLQMNSLRAEDTAVYYCARYGGRSSYYFDYWGQGTLVTVSS
VL: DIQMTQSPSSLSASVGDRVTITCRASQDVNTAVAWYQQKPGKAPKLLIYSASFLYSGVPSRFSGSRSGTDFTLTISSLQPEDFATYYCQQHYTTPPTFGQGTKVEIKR
B25: Multi-step trastuzumab HCDR3 variant SRYGYSGYGAFDY (SEQ ID NO: 521) (Fab, V domains shown)
VH: EVQLVESGGGLVQPGGSLRLSCAASGFNIKDTYIHWVRQAPGKGLEWVARIYPTNGYTRYADSVKGRFTISADTSKNTAYLQMNSLRAEDTAVYYCSRYGYSGYGAFDYWGQGTLVTVSS
VL: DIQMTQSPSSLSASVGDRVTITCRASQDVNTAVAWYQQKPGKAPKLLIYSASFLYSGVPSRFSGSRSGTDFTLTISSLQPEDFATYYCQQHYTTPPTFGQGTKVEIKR
B26: Multi-step trastuzumab HCDR3 variant ARYGGDYYYYYDY (SEQ ID NO: 527) (Fab, V domains shown)
VH: EVQLVESGGGLVQPGGSLRLSCAASGFNIKDTYIHWVRQAPGKGLEWVARIYPTNGYTRYADSVKGRFTISADTSKNTAYLQMNSLRAEDTAVYYCARYGGDYYYYYDYWGQGTLVTVSS
VL: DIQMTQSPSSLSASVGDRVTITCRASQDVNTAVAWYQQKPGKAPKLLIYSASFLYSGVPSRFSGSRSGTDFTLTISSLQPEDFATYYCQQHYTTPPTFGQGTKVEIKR
B27: Multi-step trastuzumab HCDR3 variant SRYSYSGGGSFDY (SEQ ID NO: 537) (Fab, V domains shown)
VH: EVQLVESGGGLVQPGGSLRLSCAASGFNIKDTYIHWVRQAPGKGLEWVARIYPTNGYTRYADSVKGRFTISADTSKNTAYLQMNSLRAEDTAVYYCSRYSYSGGGSFDYWGQGTLVTVSS
VL: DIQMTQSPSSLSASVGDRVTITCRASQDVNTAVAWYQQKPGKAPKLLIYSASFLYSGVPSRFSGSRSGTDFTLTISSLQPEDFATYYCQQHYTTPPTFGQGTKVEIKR
B28: Multi-step trastuzumab HCDR3 variant TRYGSFGYYALDS (SEQ ID NO: 530) (Fab, V domains shown)
VH: EVQLVESGGGLVQPGGSLRLSCAASGFNIKDTYIHWVRQAPGKGLEWVARIYPTNGYTRYADSVKGRFTISADTSKNTAYLQMNSLRAEDTAVYYCTRYGSFGYYALDSWGQGTLVTVSS
VL: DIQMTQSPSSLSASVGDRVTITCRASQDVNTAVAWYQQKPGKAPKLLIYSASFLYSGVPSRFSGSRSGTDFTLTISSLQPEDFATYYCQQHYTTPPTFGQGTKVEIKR
B29: Multi-step trastuzumab HCDR3 variant ARSYGSGSYSFDY (SEQ ID NO: 514) (Fab, V domains shown)
VH: EVQLVESGGGLVQPGGSLRLSCAASGFNIKDTYIHWVRQAPGKGLEWVARIYPTNGYTRYADSVKGRFTISADTSKNTAYLQMNSLRAEDTAVYYCARSYGSGSYSFDYWGQGTLVTVSS
VL: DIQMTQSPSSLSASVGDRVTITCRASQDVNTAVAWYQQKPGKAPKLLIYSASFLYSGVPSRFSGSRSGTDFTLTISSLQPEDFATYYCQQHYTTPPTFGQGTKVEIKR
B30: Multi-step trastuzumab HCDR3 variant ARYSGSSYYYYDY (SEQ ID NO: 536) (Fab, V domains shown)
VH: EVQLVESGGGLVQPGGSLRLSCAASGFNIKDTYIHWVRQAPGKGLEWVARIYPTNGYTRYADSVKGRFTISADTSKNTAYLQMNSLRAEDTAVYYCARYSGSSYYYYDYWGQGTLVTVSS
VL: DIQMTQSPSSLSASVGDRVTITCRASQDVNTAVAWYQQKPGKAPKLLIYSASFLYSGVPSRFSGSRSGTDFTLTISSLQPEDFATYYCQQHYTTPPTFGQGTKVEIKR
B31: De novo trastuzumab HCDR1|2|3 variant GFNVSSSY / IYPENGST / SRYSYYGGYAFDY (Fab, V domains shown)
VH: EVQLVESGGGLVQPGGSLRLSCAASGFNVSSSYIHWVRQAPGKGLEWVARIYPENGSTRYADSVKGRFTISADTSKNTAYLQMNSLRAEDTAVYYCSRYSYYGGYAFDYWGQGTLVTVSS
VL: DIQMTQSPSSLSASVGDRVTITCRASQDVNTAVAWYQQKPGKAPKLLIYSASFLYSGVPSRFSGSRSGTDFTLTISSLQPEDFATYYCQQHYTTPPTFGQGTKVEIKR
notes: also called AI Design 1

The binders below were run against T1, human epidermal growth factor receptor 2 (HER2) extracellular domain (human, UniProt P04626 23-629) (assay: SPR, Fab format).

Binder | Kd [nM] | log(KD (M)) [log M]
B1 | 358 | -6.45
B2 | 278 | -6.56
B3 | 367 | -6.44
B4 | 496 | -6.3
B5 | 570 | -6.24
B6 | 328 | -6.48

Molecular target: T1, human epidermal growth factor receptor …
Experiment: SPR, Fab format
Remark: another data set of the same source

Binder | Kd [nM] | log(KD (M)) [log M]
B7 | 169 | -6.77
B8 | 191 | -6.72
B9 | 60.6 | -7.22
B10 | 366 | -6.44
B11 | 2290 | -5.64
B12 | 1990 | -5.7
B13 | 22 | -7.66
B14 | 478 | -6.32
B15 | 901 | -6.05
B16 | 26.2 | -7.58
B17 | 441 | -6.36
B18 | 1720 | -5.76
B19 | 97.2 | -7.01
B20 | 354 | -6.45
B21 | 72.3 | -7.14
B22 | 7.31 | -8.14
B23 | 57.6 | -7.24
B24 | 257 | -6.59
B25 | 1050 | -5.98
B26 | 57 | -7.24
B27 | 362 | -6.44
B28 | 57.6 | -7.24
B29 | 495 | -6.31
B30 | 423 | -6.37
B31 | 225 | -6.65
